Assay results published in US20220293215A1.

Molecular target: I-A^b (MHCII) of murine bone marrow-derived dendritic cells from C57BL/6J mice (mouse) (UniProt P14434)
Experiment: MHCII peptidomics: Y3P IP of peptide-MHCII from BMDCs exposed to live Listeria, iTRAQ LC-MS/MS
Conditions: scale: log2 fold change, Listeria 6 hr versus 10 min

Listeria peptide mNRVmLPLQQmGAKMHGK (lmo1923 (aroE))
logFC: 0.145
